From US20070172423A1, “Composition and method for modulating vasculogenesis for angiogenesis” (priority 1998, published 2007)

How the values were obtained:
[1] = test system: PDGFR-α; experiment: PDGFR-α activation in cultured hSMC and NIH-3T3 cells (immunoprecipitation, pTyr blot); format: cell-based; details: treated cultured hSMC and NIH-3T3 fibroblast cells
Procedure: RNase protection analysis (RPA) was performed according to the manufacturer's protocol (Ambion) to investigate gene expression at mRNA level. Riboprobes were prepared using RNA polymerase (Promega) and ^32P-UTP (Amersham). Mouse β-actin cDNA (250 bp, Ambion) was used as an internal control. For Western blot assay, subconfluent cells were rinsed with cold PBS supplemented with 5 µg/ml of antiprotease cocktail, lysed in RIPA buffer and analyzed on 10% acrylamide SDS PAGE in reducing condition. Two antibodies to PDGFR-α (rabbit polyclonal antibody, dilution: 1/500, Santa Cruz, sc431; and monoclonal peroxidase-labeled anti-rabbit antibody, dilution: 1/2500, Sigma, A-2074) were used for PDGFR-α protein detection. Membranes were developed using the Supersignal System (Pierce). […] The precipitants were analysed on SDS-PAGE, and immunoblotted using a monoclonal anti-phosphotyrosine antibody (Santa Cruz).
The mitogenic and chemotactic effect of PDGF-CC was then tested on SMCs and perivascular fibroblast cells, and the effect of PDGF-CC was compared to that of VEGF and PDGF-AA in both cultured cells and the aortic ring assay (Blacher et al., Angiogenesis, 2001 4:133-42). […] In the aortic ring assay, we quantified the growth and emigration of perivascular fibroblasts from the intact vessel using computer-assisted image analysis after treatment with VEGF and different PDGFs at different concentrations. […]

[2] = test system: infarcted heart area; experiment: Revascularization following heart infarction (LAD ligation), Examples 16-17; format: in vivo, mice
Procedure: Chronic myocardial ischemia was replicated by ligation of the left anterior descending (LAD) coronary artery using anesthetized 10 week old normal C57B16 mice. For PDGF-C treatment mice, 10 μg of recombinant human PDGF-CC core domain protein produced in baculovirus infected insect cells were administered after heart infarction using a subcutaneous osmotic minipump for seven days (ALZET™osmotic pump, DURECT Corporation, Cupertino, Calif.). Seven days after LAD ligation, infarcted hearts were fixed and collected. The PDGF-CC core domain protein (SEQ ID NO: 40) corresponds to corresponds to residues 230-345 of full-length PDGF-C protein i.e. amino acids 230-345 of SEQ ID NO:3. The hearts were sectioned longitudinally into 6 μm sections. Hematoxylin-eosine and immunohistochemical stainings were performed using thrombomodulin as a marker for endothelial cells. Smooth muscle alpha-actin was used as a marker for vascular smooth muscle cells. Infarcted areas and vessel densities were calculated using a Quantinet Q600 image analysis system (Leica, Brussels, Belgium). Data were statistically analyzed using the Student T test.
The same experiment as discussed in Example 16 was repeated using 30 μg recombinant PDGF-C per mouse.

[3] = target: PDGF alpha receptors (Homo sapiens, UniProt P16234); experiment: Binding of radiolabeled truncated PDGF-C to PAE-1 cells expressing PDGF alpha receptors; set-up: expressed in transfected cells; host or cells: porcine aortic endothelial (PAE-1) cells; details: 125I-labeled protein, on ice 90 minutes
Procedure: To assess the interactions between truncated PDGF-C and the PDGF alpha and beta receptors, truncated PDGF-C was tested for its capacity to bind to porcine aortic endothelial-1 (PAE-1) cells expressing PDGF alpha or beta receptors, respectively (Eriksson et al., EMBO J, 1992 11:543-550). The binding experiments were performed essentially as described in Heldin et al. (EMBO J, 1988 7:1387 1393). Five micrograms of truncated PDGF-C protein in ten microliters of sodium borate buffer was radiolabeled using the Bolton-Hunter reagent (Amersham) to a specific activity of 4×10^5 cpm/ng. Different concentrations of radiolabeled truncated PDGF-C, with or without added unlabeled protein, in binding buffer (PBS containing 1 mg/ml of bovine serum albumin) was added to the receptor expressing PAE-1 cells plated in 24-well culture dishes on ice for 90 minutes. After three washes with binding buffer, cell-bound ^125I-labeled PDGF-C was extracted by lysis of cells in 20 mM Tris-HCl, pH 7.5, 10% glycerol, 1% Triton X-100. The amount of cell-bound radioactivity was determined in a gamma-counter. Non-specific binding was estimated by including a 100-fold molar excess of truncated PDGF-C in some experiments. […] The binding was specific as radiolabeled PDGF-C was quantitatively displaced by a 100-fold molar excess of unlabeled protein.

[4] = 10 μg by osmotic minipump for seven days
[5] = 10 μg by osmotic minipump for seven days, average ±SD

Chain of PDGF alpha receptors (P16234 24-1089): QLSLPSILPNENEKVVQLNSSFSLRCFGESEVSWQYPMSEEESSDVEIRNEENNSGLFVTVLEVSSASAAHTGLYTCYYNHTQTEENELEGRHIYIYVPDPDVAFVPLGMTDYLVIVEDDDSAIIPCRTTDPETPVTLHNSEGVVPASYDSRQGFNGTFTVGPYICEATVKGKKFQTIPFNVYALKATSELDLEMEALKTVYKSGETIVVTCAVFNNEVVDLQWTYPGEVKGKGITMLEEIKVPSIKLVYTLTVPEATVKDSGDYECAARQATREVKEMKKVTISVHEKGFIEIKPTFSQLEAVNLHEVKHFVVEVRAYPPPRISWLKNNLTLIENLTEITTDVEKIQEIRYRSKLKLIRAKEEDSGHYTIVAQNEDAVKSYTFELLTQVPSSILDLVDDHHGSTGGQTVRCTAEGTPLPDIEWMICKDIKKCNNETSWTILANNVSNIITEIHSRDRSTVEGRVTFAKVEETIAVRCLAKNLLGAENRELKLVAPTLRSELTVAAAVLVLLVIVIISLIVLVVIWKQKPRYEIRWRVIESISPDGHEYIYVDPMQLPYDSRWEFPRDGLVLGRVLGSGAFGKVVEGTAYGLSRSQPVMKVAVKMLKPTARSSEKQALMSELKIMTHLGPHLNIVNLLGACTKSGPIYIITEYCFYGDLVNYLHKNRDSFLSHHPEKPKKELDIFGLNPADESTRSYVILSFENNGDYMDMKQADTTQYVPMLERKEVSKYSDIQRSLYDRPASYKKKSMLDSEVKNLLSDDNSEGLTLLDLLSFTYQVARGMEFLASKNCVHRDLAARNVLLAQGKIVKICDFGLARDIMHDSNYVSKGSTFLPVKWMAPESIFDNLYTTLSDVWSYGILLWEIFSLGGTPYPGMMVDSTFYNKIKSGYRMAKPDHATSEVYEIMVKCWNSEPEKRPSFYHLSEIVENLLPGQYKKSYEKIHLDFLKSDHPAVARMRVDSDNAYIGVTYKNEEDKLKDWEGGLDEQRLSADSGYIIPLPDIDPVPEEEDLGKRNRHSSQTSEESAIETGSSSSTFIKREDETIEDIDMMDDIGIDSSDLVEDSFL

B1: PDGF-CC: recombinant human PDGF-CC core domain homodimer, residues 230-345 of full-length PDGF-C (SEQ ID NO:40), produced in baculovirus infected insect cells (protein)
chain: GRKSRVVDLNLLTEEVRLYSCTPRNFSVSIREELKRTDTIFWPGCLLVKRCGGNCACCLHNCNECQCVPSKVTKKYHEVLQLRPKTGVRGLHKSLTDVALEHHEECDCVCRGSTGG
modifications: homodimer; PDGF-C core domain
PDGFR-α activation (pTyr) [1]: highly activated | large vessel (>30 μm) density relative to normal (untreated) mice [2, 4]: 114% | medium vessel (10-30 μm) density relative to normal (untreated) mice [2, 4]: 111% | small vessel (<10 μm) density relative to normal (untreated) mice [2, 4]: 159.4% | large vessel (>30 μm) density [2, 5]: 8.3±3.2 large vessels/mm^2 | medium vessel (10-30 μm) density [2, 5]: 14.5±3.7 medium vessels/mm^2 | small vessel (<10 μm) density [2, 5]: 33.2±12.5 small vessels/mm^2 | total vessel density ([2]; 10 μg by osmotic minipump for seven days, average ±SD, n=6): 56±16.6 total vessels/mm^2 | total vessel density relative to normal (untreated) mice ([2]; 10 μg by osmotic minipump for seven days, infarcted area): about 136% | SMA positive large vessel density relative to normal (untreated) mice ([2]; 30 μg per mouse over 7 days): 114% | SMA positive medium vessel density relative to normal (untreated) mice ([2]; 30 μg per mouse over 7 days): 142% | SMA positive small vessel density relative to normal (untreated) mice ([2]; 30 μg per mouse over 7 days): 145% | thrombomodulin positive large vessel density relative to normal (untreated) mice ([2]; 30 μg per mouse over 7 days): 167% | thrombomodulin positive medium vessel density relative to normal (untreated) mice ([2]; 30 μg per mouse over 7 days): 153% | thrombomodulin positive small vessel density relative to normal (untreated) mice ([2]; 30 μg per mouse over 7 days): 147% | total SMA positive vessel density relative to normal (untreated) mice ([2]; 30 μg per mouse over 7 days): 141% | total thrombomodulin positive vessel density relative to normal (untreated) mice ([2]; 30 μg per mouse over 7 days): 151% | binding to cells expressing PDGF alpha receptors [3]: binds
